Assay results taken from IntAct's records for PubMed 21946559.

B1: Netrin-G1 (Homo sapiens), Q9Y2I2 (parent)
chain: MYLSRFLSIHALWVTVSSVMQPYPLVWGHYDLCKTQIYTEEGKVWDYMACQPESTDMTKYLKVKLDPPDITCGDPPETFCAMGNPYMCNNECDASTPELAHPPELMFDFEGRHPSTFWQSATWKEYPKPLQVNITLSWSKTIELTDNIVITFESGRPDQMILEKSLDYGRTWQPYQYYATDCLDAFHMDPKSVKDLSQHTVLEIICTEEYSTGYTTNSKIIHFEIKDRFAFFAGPRLRNMASLYGQLDTTKKLRDFFTVTDLRIRLLRPAVGEIFVDELHLARYFYAISDIKVRGRCKCNLHATVCVYDNSKLTCECEHNTTGPDCGKCKKNYQGRPWSPGSYLPIPKGTANTCIPSISSIGNCECFGHSNRCSYIDLLNTVICVSCKHNTRGQHCELCRLGYFRNASAQLDDENVCIECYCNPLGSIHDRCNGSGFCECKTGTTGPKCDECLPGNSWHYGCQPNVCDNELLHCQNGGTCHNNVRCLCPAAYTGILCEKLRCEEAGSCGSDSGQGAPPHGSPALLLLTTLLGTASPLVF
partner: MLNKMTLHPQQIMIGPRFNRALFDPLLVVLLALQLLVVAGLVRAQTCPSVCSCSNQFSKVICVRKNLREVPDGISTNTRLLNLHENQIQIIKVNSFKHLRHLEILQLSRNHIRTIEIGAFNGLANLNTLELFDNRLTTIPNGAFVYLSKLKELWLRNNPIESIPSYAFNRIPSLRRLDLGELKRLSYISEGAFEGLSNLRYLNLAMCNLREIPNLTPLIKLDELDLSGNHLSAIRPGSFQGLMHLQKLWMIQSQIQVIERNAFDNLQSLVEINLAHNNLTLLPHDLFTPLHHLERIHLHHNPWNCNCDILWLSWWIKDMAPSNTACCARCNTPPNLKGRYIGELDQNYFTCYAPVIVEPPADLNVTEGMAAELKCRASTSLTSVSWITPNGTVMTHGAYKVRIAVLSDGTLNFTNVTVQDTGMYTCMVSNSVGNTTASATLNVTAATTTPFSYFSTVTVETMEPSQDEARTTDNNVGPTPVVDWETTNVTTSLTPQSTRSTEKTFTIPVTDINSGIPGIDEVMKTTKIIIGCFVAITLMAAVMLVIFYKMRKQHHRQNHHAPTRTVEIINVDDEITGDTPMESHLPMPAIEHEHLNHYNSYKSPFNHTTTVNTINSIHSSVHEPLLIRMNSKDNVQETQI
B2: Netrin-G2 (Homo sapiens), Q96CW9 (parent)
chain: MLHLLALFLHCLPLASGDYDICKSWVTTDEGPTWEFYACQPKVMRLKDYVKVKVEPSGITCGDPPERFCSHENPYLCSNECDASNPDLAHPPRLMFDKEEEGLATYWQSITWSRYPSPLEANITLSWNKTVELTDDVVMTFEYGRPTVMVLEKSLDNGRTWQPYQFYAEDCMEAFGMSARRARDMSSSSAHRVLCTEEYSRWAGSKKEKHVRFEVRDRFAIFAGPDLRNMDNLYTRLESAKGLKEFFTLTDLRMRLLRPALGGTYVQRENLYKYFYAISNIEVIGRCKCNLHANLCSMREGSLQCECEHNTTGPDCGKCKKNFRTRSWRAGSYLPLPHGSPNACATAGSFGNCECYGHSNRCSYIDFLNVVTCVSCKHNTRGQHCQHCRLGYYRNGSAELDDENVCIECNCNQIGSVHDRCNETGFCECREGAAGPKCDDCLPTHYWRQGCYPNVCDDDQLLCQNGGTCLQNQRCACPRGYTGVRCEQPRCDPADDDGGLDCDRAPGAAPRPATLLGCLLLLGLAARLGR
partner: B1 partner
B3: Leucine-rich repeat-containing protein 4 (Homo sapiens), Q9HBW1 (parent)
chain: MKLLWQVTVHHHTWNAILLPFVYLTAQVWILCAAIAAAASAGPQNCPSVCSCSNQFSKVVCTRRGLSEVPQGIPSNTRYLNLMENNIQMIQADTFRHLHHLEVLQLGRNSIRQIEVGAFNGLASLNTLELFDNWLTVIPSGAFEYLSKLRELWLRNNPIESIPSYAFNRVPSLMRLDLGELKKLEYISEGAFEGLFNLKYLNLGMCNIKDMPNLTPLVGLEELEMSGNHFPEIRPGSFHGLSSLKKLWVMNSQVSLIERNAFDGLASLVELNLAHNNLSSLPHDLFTPLRYLVELHLHHNPWNCDCDILWLAWWLREYIPTNSTCCGRCHAPMHMRGRYLVEVDQASFQCSAPFIMDAPRDLNISEGRMAELKCRTPPMSSVKWLLPNGTVLSHASRHPRISVLNDGTLNFSHVLLSDTGVYTCMVTNVAGNSNASAYLNVSTAELNTSNYSFFTTVTVETTEISPEDTTRKYKPVPTTSTGYQPAYTTSTTVLIQTTRVPKQVAVPATDTTDKMQTSLDEVMKTTKIIIGCFVAVTLLAAAMLIVFYKLRKRHQQRSTVTAARTVEIIQVDEDIPAATSAAATAAPSGVSGEGAVVLPTIHDHINYNTYKPAHGAHWTENSLGNSLHPTVTTISEPYIIQTHTKDKVQETQI
partner: B1 chain
B4: Leucine-rich repeat-containing protein 4C (Homo sapiens), Q9HCJ2 (parent)
chain: B1 partner
partner: B1 chain

Variants of: B1
Settings: with lrc4c_human LRRC4C, Q9HCJ2

| effect of a mutation on the interaction | Variant |
| --- | --- |
| disrupting interaction | MYLSRFLSIHALWVTVSSVMQPYPLVWGHYDLCKTQIYTEEGKVWDYMACQPESTDMTKYLKVKLDPPDITCGDPPETFCAMGNPTMCNNECDASTPELAHPPELMFDFEGRHPSTFWQSATWKEYPKPLQVNITLSWSKTIELTDNIVITFESGRPDQMILEKSLDYGRTWQPYQYYATDCLDAFHMDPKSVKDLSQHTVLEIICTEEYSTGYTTNSKIIHFEIKDRFAFFAGPRLRNMASLYGQLDTTKKLRDFFTVTDLRIRLLRPAVGEIFVDELHLARYFYAISDIKVRGRCKCNLHATVCVYDNSKLTCECEHNTTGPDCGKCKKNYQGRPWSPGSYLPIPKGTANTCIPSISSIGNCECFGHSNRCSYIDLLNTVICVSCKHNTRGQHCELCRLGYFRNASAQLDDENVCIECYCNPLGSIHDRCNGSGFCECKTGTTGPKCDECLPGNSWHYGCQPNVCDNELLHCQNGGTCHNNVRCLCPAAYTGILCEKLRCEEAGSCGSDSGQGAPPHGSPALLLLTTLLGTASPLVF [Y86T] |
| disrupting interaction | MYLSRFLSIHALWVTVSSVMQPYPLVWGHYDLCKTQIYTEEGKVWDYMACQPESTDMTKYLKVKLDPPDITCGDPPETFCAMGNAYMCNNECDASTPELAHPPELMFDFEGRHPSTFWQSATWKEYPKPLQVNITLSWSKTIELTDNIVITFESGRPDQMILEKSLDYGRTWQPYQYYATDCLDAFHMDPKSVKDLSQHTVLEIICTEEYSTGYTTNSKIIHFEIKDRFAFFAGPRLRNMASLYGQLDTTKKLRDFFTVTDLRIRLLRPAVGEIFVDELHLARYFYAISDIKVRGRCKCNLHATVCVYDNSKLTCECEHNTTGPDCGKCKKNYQGRPWSPGSYLPIPKGTANTCIPSISSIGNCECFGHSNRCSYIDLLNTVICVSCKHNTRGQHCELCRLGYFRNASAQLDDENVCIECYCNPLGSIHDRCNGSGFCECKTGTTGPKCDECLPGNSWHYGCQPNVCDNELLHCQNGGTCHNNVRCLCPAAYTGILCEKLRCEEAGSCGSDSGQGAPPHGSPALLLLTTLLGTASPLVF [P85A] |

Variants of: B2
Settings: with lrc4c_human LRRC4C, Q9HCJ2

| effect of a mutation on the interaction | Variant |
| --- | --- |
| disrupting interaction | MLHLLALFLHCLPLASGDYDICKSWVTTDEGPTWEFYACQPKVMRLKDYVKVKVEPSGITCGDPPERFCSHENPTLCSNECDASNPDLAHPPRLMFDKEEEGLATYWQSITWSRYPSPLEANITLSWNKTVELTDDVVMTFEYGRPTVMVLEKSLDNGRTWQPYQFYAEDCMEAFGMSARRARDMSSSSAHRVLCTEEYSRWAGSKKEKHVRFEVRDRFAIFAGPDLRNMDNLYTRLESAKGLKEFFTLTDLRMRLLRPALGGTYVQRENLYKYFYAISNIEVIGRCKCNLHANLCSMREGSLQCECEHNTTGPDCGKCKKNFRTRSWRAGSYLPLPHGSPNACATAGSFGNCECYGHSNRCSYIDFLNVVTCVSCKHNTRGQHCQHCRLGYYRNGSAELDDENVCIECNCNQIGSVHDRCNETGFCECREGAAGPKCDDCLPTHYWRQGCYPNVCDDDQLLCQNGGTCLQNQRCACPRGYTGVRCEQPRCDPADDDGGLDCDRAPGAAPRPATLLGCLLLLGLAARLGR [Y75T] |
| disrupting interaction | MLHLLALFLHCLPLASGDYDICKSWVTTDEGPTWEFYACQPKVMRLKDYVKVKVEPSGITCGDPPERFCSHENAYLCSNECDASNPDLAHPPRLMFDKEEEGLATYWQSITWSRYPSPLEANITLSWNKTVELTDDVVMTFEYGRPTVMVLEKSLDNGRTWQPYQFYAEDCMEAFGMSARRARDMSSSSAHRVLCTEEYSRWAGSKKEKHVRFEVRDRFAIFAGPDLRNMDNLYTRLESAKGLKEFFTLTDLRMRLLRPALGGTYVQRENLYKYFYAISNIEVIGRCKCNLHANLCSMREGSLQCECEHNTTGPDCGKCKKNFRTRSWRAGSYLPLPHGSPNACATAGSFGNCECYGHSNRCSYIDFLNVVTCVSCKHNTRGQHCQHCRLGYYRNGSAELDDENVCIECNCNQIGSVHDRCNETGFCECREGAAGPKCDDCLPTHYWRQGCYPNVCDDDQLLCQNGGTCLQNQRCACPRGYTGVRCEQPRCDPADDDGGLDCDRAPGAAPRPATLLGCLLLLGLAARLGR [P74A] |

Variants of: B3
Settings: with ntng1_human NTNG1, Q9Y2I2

| effect of a mutation on the interaction | Variant |
| --- | --- |
| disrupting interaction | G204T |

Variants of: B4
Settings: with ntng1_human NTNG1, Q9Y2I2

| effect of a mutation on the interaction | Variant |
| --- | --- |
| disrupting interaction | A205T |
